B1: CPEB3 Ribozyme (parent)
chain: GGGGGCCACAGCAGAAGCGUUCACGUCGCGGCCCCUGUCAGAUUCUGGUGAAUCUGCGAAUUCUGCUGU

Variants of: B1
Assay: self-cleavage, relative activity (ratio to wild type); higher = more cleavage; co-transcriptional

Variant | self-cleavage
GGGGGGCACAGCAGAAGCGUUCACGUCGCGGCCUCUGUCAGAUUCUGGUGAAUCUGCGAAUUCUGCUGU [C6G C34U] | 0.304
GGGGGGCACAGCAGAAGCGUUCACGUCGCGGCCGCUGUCAGAUUCUGGUGAAUCUGCGAAUUCUGCUGU [C6G C34G] | 0.0582
GGGGGGCACAGCAGAAGCGUUCACGUCGCGGCACCUGUCAGAUUCUGGUGAAUCUGCGAAUUCUGCUGU [C6G C33A] | 0.117
GGGGGGCACAGCAGAAGCGUUCACGUCGCGGCGCCUGUCAGAUUCUGGUGAAUCUGCGAAUUCUGCUGU [C6G C33G] | 0.0662
GGGGGGCACAGCAGAAGCGUUCACGUCGCGGCUCCUGUCAGAUUCUGGUGAAUCUGCGAAUUCUGCUGU [C6G C33U] | 0.262
GGGGGACACAGCAGAAGCGUUCACGUCGCGGCCCCUGUCAGAUUCUGGUGAAUCUGCGAAUUCUGCAGU [C6A U67A] | 0.782
GGGGGACACAGCAGAAGCGUUCACGUCGCGGCCCCUGUCAGAUUCUGGUGAAUCUGCGAAUUCUGCCGU [C6A U67C] | 0.883
GGGGGGCAAAGCAGAAGCGUUCACGUCGCGGCCCCUGUCAGAUUCUGGUGAAUCUGCGAAUUCUGCUGU [C6G C9A] | 0.651
GGGGGGCAGAGCAGAAGCGUUCACGUCGCGGCCCCUGUCAGAUUCUGGUGAAUCUGCGAAUUCUGCUGU [C6G C9G] | 0.445
GGGGGGCACAGCAGAAACGUUCACGUCGCGGCCCCUGUCAGAUUCUGGUGAAUCUGCGAAUUCUGCUGU [C6G G17A] | 0.0588
GGGGGGCACAGCAGAAUCGUUCACGUCGCGGCCCCUGUCAGAUUCUGGUGAAUCUGCGAAUUCUGCUGU [C6G G17U] | 0.0809
GGGGGGCACAGCAGAACCGUUCACGUCGCGGCCCCUGUCAGAUUCUGGUGAAUCUGCGAAUUCUGCUGU [C6G G17C] | 0.0719
GGGGGGCACAGCAGAAGCGUUCACGUCGCGGACCCUGUCAGAUUCUGGUGAAUCUGCGAAUUCUGCUGU [C6G C32A] | 0.0685
GGGGGGCACAGCAGAAGCGUUCACGUCGCGGUCCCUGUCAGAUUCUGGUGAAUCUGCGAAUUCUGCUGU [C6G C32U] | 0.212
GGGGGGCACAGCAGAAGCGUUCACGUCGCGGGCCCUGUCAGAUUCUGGUGAAUCUGCGAAUUCUGCUGU [C6G C32G] | 0.0963
GGGGGGCACAGCAGAAGCGUUCACGUCGCGGCCCAUGUCAGAUUCUGGUGAAUCUGCGAAUUCUGCUGU [C6G C35A] | 0.0719
GGGGGGCACAGCAGAAGCGUUCACGUCGCGGCCCUUGUCAGAUUCUGGUGAAUCUGCGAAUUCUGCUGU [C6G C35U] | 0.15
GGGGGGCACAGCAGAAGCGUUCACGUCGGGGCCCCUGUCAGAUUCUGGUGAAUCUGCGAAUUCUGCUGU [C6G C29G] | 0.0434
GGGGGGCACAGCAGAAGCGUUCACGUCGUGGCCCCUGUCAGAUUCUGGUGAAUCUGCGAAUUCUGCUGU [C6G C29U] | 0.0888
GGGGGGCACAGCAGAAGCGUUCACGUCGCGGCCCCUGUCAGAUUCUGGUGUAUCUGCGAAUUCUGCUGU [C6G A51U] | 0.353
GGGGGGCACAGCAGAAGCGUUCACUUCGCGGCCCCUGUCAGAUUCUGGUGAAUCUGCGAAUUCUGCUGU [C6G G25U] | 0.0634
GGGGGGCACAGCAGAAGCGUUCACCUCGCGGCCCCUGUCAGAUUCUGGUGAAUCUGCGAAUUCUGCUGU [C6G G25C] | 0.0497
GGGGGGCACAGCAGAAGCGUUCACGUCGCGGCCCCUGUCUGAUUCUGGUGAAUCUGCGAAUUCUGCUGU [C6G A40U] | 0.0791
GGGGGGCACAGCAGAAGCGUUCACGUCGCGGCCCCUGUCGGAUUCUGGUGAAUCUGCGAAUUCUGCUGU [C6G A40G] | 0.307
GGGGGGCACAGCAGAAGCGUUCACGUCGCGGCCCCUGUCCGAUUCUGGUGAAUCUGCGAAUUCUGCUGU [C6G A40C] | 0.128
GGGGGGCACUGCAGAAGCGUUCACGUCGCGGCCCCUGUCAGAUUCUGGUGAAUCUGCGAAUUCUGCUGU [C6G A10U] | 0.375

Variant | self-cleavage
GGGGGGCACGGCAGAAGCGUUCACGUCGCGGCCCCUGUCAGAUUCUGGUGAAUCUGCGAAUUCUGCUGU [C6G A10G] | 0.459
GGGGGGCACAGCAGAAGCGUUCACGUCGCGGCCCCUGUCAGAUUUUGGUGAAUCUGCGAAUUCUGCUGU [C6G C45U] | 0.362
GGGGGGCACAGCAGAAGCGUUCACGUCGCGGCCCCUGUCAGAUUAUGGUGAAUCUGCGAAUUCUGCUGU [C6G C45A] | 0.227
GGGGGGCACAGCAGAAGCGUUCACGUCGCGGCCCCUGUCAGAUUCUGGUGACUCUGCGAAUUCUGCUGU [C6G A52C] | 0.264
GGGGGGCACAGCAGAAGCGUUCACGUCGCGGCCCCUGUCAGAUUCUGGUGAGUCUGCGAAUUCUGCUGU [C6G A52G] | 0.343
GGGGGGCACAGCAGAAGCGUUCACGUCUCGGCCCCUGUCAGAUUCUGGUGAAUCUGCGAAUUCUGCUGU [C6G G28U] | 0.0241
GGGGGGCACAGCAGAAGCGUUCACGUCGCGGCCCCUGUCAGAUUCUGGUGAAUCUGCGAUUUCUGCUGU [C6G A60U] | 0.137
GGGGGGCACAGCAGAAGCGUUCACGUCGCGGCCCCUGUCAGAUUCUGGUGAAUCUGCGAGUUCUGCUGU [C6G A60G] | 0.16
GGGGGGCACAGCAGAAGCGUUCACGUCGCGGCCCCUGUCAGCUUCUGGUGAAUCUGCGAAUUCUGCUGU [C6G A42C] | 0.257
GGGGGGCACAGCAGAAGCGUUCACGUCGCGGCCCCUGUCAGUUUCUGGUGAAUCUGCGAAUUCUGCUGU [C6G A42U] | 0.154
GGGGGGCACAGCAGAAGCGUUCACGUCGCGGCCCCUGUCAGAUUCUGGUGAAUCUGCGAAUUCUGAUGU [C6G C66A] | 0.18
GGGGGGCACAGCAGAAGCGUUCACGUCGCGGCCCCUGUCAGAUUCUGGUGAAUCUGCGAAUUCUGUUGU [C6G C66U] | 0.316
GGGGGGCACAGCAGAAGCGUUCACGUAGCGGCCCCUGUCAGAUUCUGGUGAAUCUGCGAAUUCUGCUGU [C6G C27A] | 0.0381
GGGGGGCACAGCAGAAGCGUUCACGUUGCGGCCCCUGUCAGAUUCUGGUGAAUCUGCGAAUUCUGCUGU [C6G C27U] | 0.0872
GGGGGGCACAGCAGAAGCGUUCACGUGGCGGCCCCUGUCAGAUUCUGGUGAAUCUGCGAAUUCUGCUGU [C6G C27G] | 0.0563
GGGGGGCACAGCAGAAGCGUUCACGUCGCGGCCCCUGUCAGAUUCUGGUGAAUGUGCGAAUUCUGCUGU [C6G C54G] | 0.0918
GGGGGGCACAGCAGAAGCGUUCACGUCGCGGCCCCUGUCAGAUUCUGGUGAAUUUGCGAAUUCUGCUGU [C6G C54U] | 0.398
GGGGGGCACAGCAGAAGCGUUCACGUCGCGGCCCCUGUCAGAUUCUGGUGAAUCUGCGCAUUCUGCUGU [C6G A59C] | 0.21
GGGGGGCACAGCAGAAGCGUUCACGUCGCGGCCCCUGUCAGAUUCUGGUGAAUCUGCGGAUUCUGCUGU [C6G A59G] | 0.255
GGGGGGCACAGCAGAAGUGUUCACGUCGCGGCCCCUGUCAGAUUCUGGUGAAUCUGCGAAUUCUGCUGU [C6G C18U] | 0.0723
GGGGGGCACAGCAGAAGGGUUCACGUCGCGGCCCCUGUCAGAUUCUGGUGAAUCUGCGAAUUCUGCUGU [C6G C18G] | 0.062
GGGGGGCACAGCAGAAGAGUUCACGUCGCGGCCCCUGUCAGAUUCUGGUGAAUCUGCGAAUUCUGCUGU [C6G C18A] | 0.0602
GGGGGGCACAGCAGAUGCGUUCACGUCGCGGCCCCUGUCAGAUUCUGGUGAAUCUGCGAAUUCUGCUGU [C6G A16U] | 0.151
GGGGGGCACAGCAGACGCGUUCACGUCGCGGCCCCUGUCAGAUUCUGGUGAAUCUGCGAAUUCUGCUGU [C6G A16C] | 0.0895
GGGGGGCACAGCAGAAGCGUUCACGUCGCGGCCCCUGUCAGAUUCUGGUGAAUCUGCGAAUUCUGCUGU [C6G] | 0.388
GGGGGGCACACCAGAAGCGUUCACGUCGCGGCCCCUGUCAGAUUCUGGUGAAUCUGCGAAUUCUGCUGU [C6G G11C] | 0.17

Variant | self-cleavage
GGGGGGCACAGCAGAAGCGUUCCCGUCGCGGCCCCUGUCAGAUUCUGGUGAAUCUGCGAAUUCUGCUGU [C6G A23C] | 0.302
GGGGGGCACAGCAGCAGCGUUCACGUCGCGGCCCCUGUCAGAUUCUGGUGAAUCUGCGAAUUCUGCUGU [C6G A15C] | 0.122
GGGGGGCACAGCAGAAGCGUUCACGUCGCGGCCCCUGUCAGAUUCUGGUGAAUCUGAGAAUUCUGCUGU [C6G C57A] | 0.0667
GGGGGGCACAGCAGAAGCGUUCACGUCGCGGCCCCUGUCAGAUUCUGGUGAAUCUGUGAAUUCUGCUGU [C6G C57U] | 0.189
GGGGGGCACAGCGGAAGCGUUCACGUCGCGGCCCCUGUCAGAUUCUGGUGAAUCUGCGAAUUCUGCUGU [C6G A13G] | 0.0914
GGGGGGCACAGCAGAAGCGUUCACGUCGCGGCCCCUGUGAGAUUCUGGUGAAUCUGCGAAUUCUGCUGU [C6G C39G] | 0.174
GGGGGGCACAGCAGAAGCAUUCACGUCGCGGCCCCUGUCAGAUUCUGGUGAAUCUGCGAAUUCUGCUGU [C6G G19A] | 0.0949
GGGGGGCACAGCAGAAGCUUUCACGUCGCGGCCCCUGUCAGAUUCUGGUGAAUCUGCGAAUUCUGCUGU [C6G G19U] | 0.0686
GGGGGGCACAGCAGAAGCCUUCACGUCGCGGCCCCUGUCAGAUUCUGGUGAAUCUGCGAAUUCUGCUGU [C6G G19C] | 0.0471
GGGGGGCACAGCAGAAGCGUUCAAGUCGCGGCCCCUGUCAGAUUCUGGUGAAUCUGCGAAUUCUGCUGU [C6G C24A] | 0.0804
GGGGGGCACAGCAGAAGCGUUCAGGUCGCGGCCCCUGUCAGAUUCUGGUGAAUCUGCGAAUUCUGCUGU [C6G C24G] | 0.085
GGGGGGCACAGCAGAAGCGUUCAUGUCGCGGCCCCUGUCAGAUUCUGGUGAAUCUGCGAAUUCUGCUGU [C6G C24U] | 0.193
GGGGGGCUCAGCAGAAGCGUUCACGUCGCGGCCCCUGUCAGAUUCUGGUGAAUCUGCGAAUUCUGCUGU [C6G A8U] | 0.149
GGGGGGCCCAGCAGAAGCGUUCACGUCGCGGCCCCUGUCAGAUUCUGGUGAAUCUGCGAAUUCUGCUGU [C6G A8C] | 0.873
GGGGGACACAGCAGAAGCGUUCACGUCGCGGCCCCUGUCAGAUUCUGGUGAAUCUGCGAAUUCUGCUGG [C6A U69G] | 0.838
GGGGGACACAGCAGAAGCGUUCACGUCGCGGCCCCUGUCAGAUUCUGGUGAAUCUGCGAAUUCUGCUGC [C6A U69C] | 1.03
GGGGGACACAGCAGAAGCGUUCACGUCGCGGCCCCUGUCAGAUUCUGGUGAAUCUGCGAAUUCUGCUGA [C6A U69A] | 0.884
GGGGGGCACAGCAGAAGCGUUCACGUCGCAGCCCCUGUCAGAUUCUGGUGAAUCUGCGAAUUCUGCUGU [C6G G30A] | 0.172
GGGGGACACAGCAGAAGCGUUCACGUCGCGGCCCCUGUCAGAUUCUGGUGAAUCUGCGAAUUCAGCUGU [C6A U64A] | 0.307
GGGGGACACAGCAGAAGCGUUCACGUCGCGGCCCCUGUCAGAUUCUGGUGAAUCUGCGAAUUCGGCUGU [C6A U64G] | 0.469
GGGGGGCACAGCAAAAGCGUUCACGUCGCGGCCCCUGUCAGAUUCUGGUGAAUCUGCGAAUUCUGCUGU [C6G G14A] | 0.0825
GGGGGGCACAGCACAAGCGUUCACGUCGCGGCCCCUGUCAGAUUCUGGUGAAUCUGCGAAUUCUGCUGU [C6G G14C] | 0.0817
GGGGGGUACAGCAGAAGCGUUCACGUCGCGGCCCCUGUCAGAUUCUGGUGAAUCUGCGAAUUCUGCUGU [C6G C7U] | 0.176
GGGGGGCACAGCAGAAGCGUUCACGUCGCGGCCCCUGUCAGAUUCUGGUGAAUCUGCGAAUUGUGCUGU [C6G C63G] | 0.149
GGGGGGCACAGCAGAAGCGUUCACGUCGCGGCCCCUGUCAGAUUCUGGUGAAUCUGCGAAUUUUGCUGU [C6G C63U] | 0.262
GGGGGGCACAGCAGAAGCGUUCACGUCGCGGCCCCUGUCAGAUUCUGGUGAAUCUGCGAAUUAUGCUGU [C6G C63A] | 0.185

Reference: the RNAGym collection of RNA variant scans (doi:10.7554/elife.80360)
